In article PMC12152508, “Altering 15‐Lipoxygenases to 18‐Lipoxygenases and Their Application to the Production of 5,18‐Dihydroxyeicosapentaenoic Acids” (Biotechnology and Bioengineering, 2025):
Changes are numbered by the printed parent chain. In names and notes the source's numbering stands.

B1: 15R-LOX from Sorangium cellulosum (Sorangium cellulosum) (protein)
chain: MSNPSLPQNDSPAEQQQRKSELARAQQTYVYDHDTRLSPLGVAQSVPNGQGFAPILVGSAALVILDLVGNVVAKASKLVGSDGSLRSPKGAPLDDATSARIQGVLHDLKQRHRELTLVLTPLHGEPERAPAPPPRAPAVALVEGVAQKFVTTAENRAMESVLGATNLSTKNVGDIIKSLLDTLLSAAGKLLLDLVGMYGQATSVYDYVSEFQTFRLPEIASVYQDDAIFAWMRVAGPNPLVLKRVASPGASFPVTDAQYRSVMGEGDSLASAGKEGRLYLADYKALSQLVPGTAPDQQKYVEAPLALFAVPAAGAPSRLLRPVAIQCAQAPGAASPIFTPSDGVAWEVAKLHVQVADGNFHELISHLGQTHLVLEAFAMATPRQLAPEHPVNVLLTPHFQGTLAINNAAEADLIAPGGPVDNLLAGTIASSTQLAVDAVLSYSVNQQFLPVALAQRGVDDPSTLPSYPYRDDATLLWGAIHTWVSRYLAVYYTSDADVLGDYELQHWIAELSSPSGCGLKDIGEDGAIRTVAYLADLLTHVIFTASAQHAAVNFPQSSLMSFTPALPLAAYAPAPSITAGLPPSEIFQHLPPLQQALLQINVMMLLGGVYYSRLGDYDRNIPGAYFTDARVREPLEAFQRELMEIEATIGKRNLQRFPYVVLLPSQIPQSINI
B2: 15R-LOX from Sorangium cellulosum (Sorangium cellulosum; L423W) (protein)
chain: B1 chain with L423W
notes: expressed from pET-28a(+) in E. coli C2566, His-Trap purified
B3: 15R-LOX from Sorangium cellulosum (Sorangium cellulosum; L423W/L424M) (protein)
chain: B1 chain with L423W, L424M
notes: as for B2
B4: 15R-LOX from Sorangium cellulosum (Sorangium cellulosum; L423W/L424M/L568M) (protein)
chain: B1 chain with L423W, L424M, L568M
notes: as for B2
B5: 15S-LOX from Archangium violaceum (Archangium violaceum Cb vi76; L429W/L430M/L575M) (protein)
chain: MRSIPSLPQNDSPAQQELRLATLTQERQVYAYNFDSRLSPLGIAAQVPRQDNFSFVWLDGVATTGLQLLGNVLAIGAKLFDNGEAIQNDAGLSELELRRVEGTYRELTDGFSRLSDRTSRLHQAPRSPAVTLIADVIERPRTLLKAAGQKLEETAGVAIVSELATQAALDAPAIGQDILDLIDTLLKKLLSEAGDLFLKYLGLYGKAASLDNYTAQFSLLQPPSVASNYETDLIFARMRLAGPNPALLQGIAALPEKFPVTDAQYQSVMGSQDTLARAGQEGRLYLLDYAVFQGIPTGQTSGGQKYIEAPLALFAVPAANQADRKLRAVAIQCSQTPGRSNPIFTPADGTSWSLARLHVQVADGNYHELIAHLGLTHLILEEFTLSTHRQLAPQHPLYLLLTPHFQGTLAINNAAETSLIAPGGPVDQWMAGEIKASTQVSIQAVANQSINQSFLPRALAARGVDDASKLPDYPYRDDALLLWNDIRAWVSDYLAIYYNDDAAVRSDYELQAWVTELASPDAGKLKDVTEGGGGIQTFEYLVDLTTYIIFTASVQHAAVNFPQRTVMSYTPALPMAAYAPAPTSVEELPPSTELTHLPPLQMAFLQQAVTFGLGNVYFTRLGGYDTYLREPWFADARVWPALEVFQKRLRATEREIGQRNLSRIPYETLLPTAIPQSINI
notes: as for B2
B6: 15S-LOX from Archangium violaceum (Archangium violaceum Cb vi76; L429W) (protein)
chain: B5 chain with M430L, M575L
notes: as for B2
B7: 15S-LOX from Archangium violaceum (Archangium violaceum Cb vi76; L429W/L430M) (protein)
chain: B5 chain with M575L
notes: as for B2
B8: 15S-LOX from Archangium violaceum (Archangium violaceum Cb vi76) (protein)
chain: B5 chain with W429L, M430L, M575L
notes: as for B2

Experiments:
purified protein [1] = substrate: CC/C=C\C/C=C\C/C=C\C/C=C\C/C=C\CCCC(=O)O; assay: purified protein; format: biochemical, Sorangium cellulosum; conditions: 50 mM HEPES pH 8.0, 20°C
purified protein [2] = substrate: CC/C=C\C/C=C\C/C=C\C/C=C\C/C=C\CCCC(=O)O; assay: purified protein; format: biochemical, Archangium violaceum; conditions: 50 mM HEPES pH 8.5, 20°C

| Protein | Km (purified protein [1]; products 15R- and 18R-HpEPEs) [µM] | kcat (purified protein [1]; products 15R- and 18R-HpEPEs) [s⁻¹] | kcat/Km (purified protein [1]; products 15R- and 18R-HpEPEs) [M⁻¹ s⁻¹] | Km (purified protein [2]; products 15S- and 18S-HpEPEs) [µM] | kcat (purified protein [2]; products 15S- and 18S-HpEPEs) [s⁻¹] | kcat/Km (purified protein [2]; products 15S- and 18S-HpEPEs) [M⁻¹ s⁻¹] | other results |
| --- | --- | --- | --- | --- | --- | --- | --- |
| B1 |  |  |  |  |  |  | Km (purified protein [1]; product 15R-HpEPE): 41.9 µM; kcat (purified protein [1]; product 15R-HpEPE): 68 s⁻¹; kcat/Km (purified protein [1]; product 15R-HpEPE): 1.62e+06 M⁻¹ s⁻¹ |
| B2 | 69.8 | 105 | 1.5e+06 |  |  |  |  |
| B3 | 43.3 | 22.7 | 520000 |  |  |  |  |
| B4 | 253.7 | 90.8 | 360000 |  |  |  |  |
| B5 |  |  |  | 221.3 | 118 | 530000 |  |
| B6 |  |  |  | 35.6 | 51.8 | 1.45e+06 |  |
| B7 |  |  |  | 57.2 | 48.7 | 850000 |  |
| B8 |  |  |  |  |  |  | Km (purified protein [2]; product 15S-HpEPE): 40.7 µM; kcat (purified protein [2]; product 15S-HpEPE): 61.4 s⁻¹; kcat/Km (purified protein [2]; product 15S-HpEPE): 1.51e+06 M⁻¹ s⁻¹ |
